Assay results taken from the supplement of paper PMC11908140.

B1: library; numbered along this chain (parent)
chain: MRKPRAAVGSGHRKQAASQEGRQKHAKNNSQAKPSACDGLARQPEEVVLQASVSSYHLFRDVAEVTAFRGSLLSWYDQEKRDLPWRRRAEDEMDLDRRAYAVWVSEVMLQQTQVATVINYYTGWMQKWPTLQDLASASLEEVNQLWAGLGYYSRGRRLQEGARKVVEELGGHMPRTAETLQQLLPGVGRYTAGAIASIAFGQATGVVDGNVARVLCRVRAIGADPSSTLVSQQLWGLAQQLVDPARPGDFNQAAMELGATVCTPQRPLCSQCPVESLCRARQRVEQEQLLASGSLSGSPDVEECAPNTGQCHLCLPPSEPWDQTLGVVNFPRKASRKPPREESSATCVLEQPGALGAQILLVQRPNSGLLAGLWEFPSVTWEPSEQLQRKALLQELQRWAGPLPATHLRHLGEVVHTFSHIKLTYQVYGLALEGQTPVTTVPPGARWLTQEEFHTAAVSTAMKKVFRVYQGQQPGTCMGSKRSQVSSPCSRKKPRMGQQVLDNFFRSHISTDAHSLNSAAQ

Variants of: B1
Assay: 8OG:A repair function score (normalized; synonymous = 0, nonsense = -1) (normalized log-likelihood score); higher = more repair activity (WT-like)
Conditions: with 8OG:A DNA repair reporter (GFP) in HEK-293 MUTYH KO cells
Outline: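 With 10 pg/ml doxycycline, MUTYH knockout HEK-293 cells carrying lentiviral MUTYH cDNA NNN codon-scan libraries were co-transfected with mCherry and an 8OG:A GFP repair reporter. Viable mCherry+ cells were sorted into GFP+ (repair) and GFP− bins at 72 h, three replicates per tile, and tile amplicons were sequenced. Per-tile Rosace fitness scores were then normalized into a repair function score anchored on synonymous and nonsense distributions. Medians were fixed at 0 for synonymous and -1 for nonsense, excluding variants under 300 counts per million at the start.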

8OG:A repair function score, by site and new letter:
P494: H 0.015, W -0.0155, R 0.00547
C489: Q -0.0376, R -0.0027, E 0.0219, P -0.00598, M 0.00595, N 0.0265, T 0.00493, W 0.0227, V -0.0255, I -0.0718, D 0.013, L 0.0177, H 0.0276, S 0.0134, K -0.0226, Y 0.00164, F -0.0128, G 0.00751, A -0.00252
K492: V -0.0261, I 0.0148, Y -0.0316, W 0.0127, S -0.0044, N -0.00159, T -0.00293, F -0.0038, R -0.0207, D -0.0117, Q 0.0192, A 0.0165, C 0.0201, G -0.00555, P 0.0192, M 0.015, H -0.0225, L -0.0333, E 0.022
K481: R 0.0229, I 0.000486, Q -0.00252, N -2.28e-05, W -0.0431, L -0.0084, A -0.00494, Y -0.0542, D 0.016, S -0.00188, M -0.00967, H -0.0426, V -0.0202, T -0.0524, P 0.00979, C 0.0191, G -0.0136, E -0.00514, F 0.0166
V485: E -0.0478, A -0.00727, D 0.0102, F 0.0143, G -0.0147, M 0.0202, C 0.0143, K -0.00358, H 0.0165, R 0.0173, Y -0.0379, P -0.0106, L 0.0118, W -0.0552, S 0.0216, I 0.0128, N -0.00234, Q -0.0322, T 0.00314
M478: W 0.0205, R -0.0213, S -0.00625, Y 0.0167, Q 0.0193, P -0.0126, T -0.0383, V -0.00439
K493: M -0.00762, H 0.0281, Y 0.00504, A 0.0129, W 0.00262, F -0.0124, Q -0.107, D 0.0108, P 0.0123, N 0.0279, S 0.0155, E 0.0199, V -0.0351, C -0.00147, I -0.0174, T 0.0143, R -0.00709, G 0.0135, L -0.025
S486: N 0.00666, Y 0.00541, P 0.0275, I -0.0359, L 0.00981, F 0.00694, T 0.0101, V -0.00598, C -0.016, W 0.0129, E 0.0262, G 0.0224, D 0.00623, Q -0.0168, K -0.0131, A 0.00239, R -0.0146, M -0.00979, H 0.026
G479: Y 0.025, H 0.0228, T -0.0258, K 0.00166, D 0.0194, M -0.0116, I -0.00859, V 0.00419, A 0.00119, S 0.00355, F -0.00391, Q 0.0264, E 0.0225, C -0.0498, W -0.0628, N -0.00734, R -0.0309, P 0.0129, L 0.00935
R482: Q 0.0234, F 0.0283, L 0.00831, H -0.0234, Y 0.0178, E 0.00949, A 0.0234, I -0.00811, P 0.0273, G 0.0105, T -0.0344, W 0.0248, N -0.0127, K 0.021, M -0.00466, D -0.000963, C 0.0254, V 0.00231, S 0.0216
M496: C -0.00499, A 0.0241, E 0.00855, D 0.00779
